Experimental findings from US20160244528A1 (SORRENTO THERAPEUTICS, published 2016) are described below.

Experiment [1] has as its target T1, Recombinant human CD137/His (human, UniProt Q07011 24-186).
T1 construct: Analyte of the SPR assay; also called 4-1BB; TNFRSF9; not shown: His tag
The experiment in a line: SPR (Biacore), antibody captured on anti-human Fc, human CD137/His as analyte, 1:1 fit. As for the experimental part: This example illustrates binding affinities of exemplary anti-CD137 antibodies disclosed herein. Affinities were determined using surface plasmon resonance (Biacore). Briefly, anti-human Fc antibody (GE, BR-1008-39) was immobilized on CM5 sensor chip to approximately 1000 RU using standard NHS/EDC coupling methodology. Antibodies (about 10 μg/ml) were captured for 60 s at a flow rate 10 μl/min Recombinant human CD137/His was serially diluted in running buffer (HBS-EP). All measurements were conducted with a flow rate of 30 μL/min Surfaces were regenerated with 3M MgCl₂ for 60 s. A 1:1 (Langmuir) binding model was used to fit the data.
Background: SPR reads the build-up and loss of mass on a sensor chip optically.

Experiment [2] concerns the target T2, mouse CD137/Fc (mouse, UniProt P20334 24-187).
T2 construct: Coated on the ELISA plate at 2 µg/mL; also called murine CD137; not shown: Fc part
T2 sequence (looked up): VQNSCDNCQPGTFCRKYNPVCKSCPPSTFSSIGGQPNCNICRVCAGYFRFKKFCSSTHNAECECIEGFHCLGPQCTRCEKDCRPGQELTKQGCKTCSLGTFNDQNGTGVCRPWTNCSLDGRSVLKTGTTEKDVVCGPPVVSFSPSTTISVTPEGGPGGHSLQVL
The experiment in a line: ELISA, plate coated with mouse CD137/Fc at 2 µg/mL, detection with HRP anti-human Lambda, OD 450 nm. As for the experimental part:
A Maxisorp plate was coated with recombinant human CD137/Fc or mouse CD137/Fc at 2 μg/mL at 4° C., overnight. The plate was blocked for 1 hour at room temperature, washed 3 times with PBS-Tween (PBST), then anti-CD137 antibodies (˜1 μg/mL) diluted in casein were added and incubated for 30 min with shaking. The plate was washed 3 times with PBST, horseradish peroxidase (HRP)-conjugated mouse anti-human Lambda (1:1000 in casein) was added, then 3,3′,5,5′-Tetramethylbenzidine (TMB) was added as substrate and developed about 5 min. 2M H₂SO₄ was used to stop the reaction and the OD was read at 450 nm.

One may read the Kd as a measure of binding affinity in units of concentration. One may read the koff as the rate constant with which the complex falls apart. The kon is the second-order rate constant of association.

B1: anti-CD137 antibody D6 (antibody, V domains shown)
VH: QMQLVQSGAEVKKPGASVKVSCKASGYTFTGYYMHWVRQAPGQGLEWMGWINPNSGGTNYAQKFQGRVTITRDTSASTAYMELSSLRSEDTAVYYCAREGEAVGLDLDYWGQGTLVTVSS
VL: SYELTQPPSVSVAPGKTARITCGGNNIGSKSVHWYQQKPGQAPVLVIYYDSDRPSGIPERFSGSNSGNTATLTISRVEAGDEADYYCQVWDSSSVVFGGGTQLTVL
notes: Fully human antibody, captured through anti-human Fc in SPR and detected with anti-human Lambda in ELISA
B1: in experiment [1], the dissociation constant (Kd) stood at 203 nM, the koff worked out at 0.0814 s⁻¹ and the association rate constant (kon) amounted to 401000 M⁻¹ s⁻¹. The binding result in experiment [2] is “no binding”.

B2: anti-CD137 antibody MB12 (antibody, V domains shown)
VH: QMQLVQSGAEVKKPGASVKVSCKASGYSLEGYYMHWVRQAPGQGLEWMGWINPNSGGTNYAQKFQGRVTITRDTSASTAYMELSSLRSEDTAVYYCAREGEAVGLDLDYWGQGTLVTVSS
VL: SYELTQPPSVSVAPGKTARITCGGNNIGSKSVHWYQQKPGQAPVLVIYYDSDRPSGIPERFSGSNSGNTATLTISRVEAGDEADYYCQVWDSSSVVFGGGTQLTVL
notes: Variant of D6 with the same light chain variable domain
Consider B2, for which, in experiment [1], the Ka was 6.47e+06 M⁻¹, the koff is 0.0669 s⁻¹ and the kon is 433000 M⁻¹ s⁻¹. The binding result in experiment [2] is recorded as “no binding”.

B3: anti-CD137 antibody MSC8 (antibody, V domains shown)
VH: QMQLVQSGAEVKKPGASVKVSCKASGYNFGGYYMHWVRQAPGQGLEWMGWVNPKSGGTNYAQKFQGRVTITRDTSASTAYMELSSLRSEDTAVYYCAREGEAVGLDLDYWGQGTLVTVSS
VL: SYELTQPPSVSVAPGKTARITCGGNNIGSKSVHWYQQKPGQAPVLVIYYDSDRPSGIPERFSGSNSGNTATLTISRVEAGDEADYYCQVWDSSSVVFGGGTQLTVL
notes: as for B2
B3: in experiment [1], the koff was 0.0615 s⁻¹ and the kon came to 282000 M⁻¹ s⁻¹. Also, in experiment [2], the binding result is reported as “no binding”.

B4: anti-CD137 antibody MSA11 (antibody, V domains shown)
VH: QMQLVQSGAEVKKPGASVKVSCKASGYSFTGYYMHWVRQAPGQGLEWMGWVNPKSGGTNYAQKFQGRVTITRDTSASTAYMELSSLRSEDTAVYYCAREGWARRIDLDEWGQGTLVTVSS
VL: SYELTQPPSVSVAPGKTARITCGGNNIGSKSVHWYQQKPGQAPVLVIYYDSDRPSGIPERFSGSNSGNTATLTISRVEAGDEADYYCQVWDSSSVVFGGGTQLTVL
notes: as for B2
For B4, in experiment [1], the Ka was found to be 2.13e+07 M⁻¹, the koff was 0.00631 s⁻¹ and the on-rate constant (kon) was 135000 M⁻¹ s⁻¹.

B5: anti-CD137 antibody MD4 (antibody, V domains shown)
VH: QMQLVQSGAEVKKPGASVKVSCKASGYNWTGYYMHWVRQAPGQGLEWMGWINPMAGGTNYAQKFQGRVTITRDTSASTAYMELSSLRSEDTAVYYCAREGWARGVELDMWGQGTLVTVSS
VL: SYELTQPPSVSVAPGKTARITCGGNNIGSKSVHWYQQKPGQAPVLVIYYDSDRPSGIPERFSGSNSGNTATLTISRVEAGDEADYYCQVWDSSSVVFGGGTQLTVL
notes: as for B2
With B5, in experiment [1], the Ka is 1.12e+07 M⁻¹, the Kd is 88.9 nM, the dissociation rate constant (koff) was 0.0512 s⁻¹ and the kon was found to be 576000 M⁻¹ s⁻¹.

B6: anti-CD137 antibody MC8 (antibody, V domains shown)
VH: QMQLVQSGAEVKKPGASVKVSCKASGYMPDGYYMHWVRQAPGQGLEWMGWINPRTGGTNYAQKFQGRVTITRDTSASTAYMELSSLRSEDTAVYYCAREGAAFRLELDAWGQGTLVTVSS
VL: SYELTQPPSVSVAPGKTARITCGGNNIGSKSVHWYQQKPGQAPVLVIYYDSDRPSGIPERFSGSNSGNTATLTISRVEAGDEADYYCQVWDSSSVVFGGGTQLTVL
notes: as for B2
In the case of B6, in experiment [1], the Ka came out at 3.32e+07 M⁻¹, the koff stood at 0.00628 s⁻¹ and the kon was 208000 M⁻¹ s⁻¹.

B7: anti-CD137 antibody MSH1 (antibody, V domains shown)
VH: QMQLVQSGAEVKKPGASVKVSCKASGYNFGGYYMHWVRQAPGQGLEWMGWVNPHSGGTNYAQKFQGRVTITRDTSASTAYMELSSLRSEDTAVYYCAREGEAWGLDLDLWGQGTLVTVSS
VL: SYELTQPPSVSVAPGKTARITCGGNNIGSKSVHWYQQKPGQAPVLVIYYDSDRPSGIPERFSGSNSGNTATLTISRVEAGDEADYYCQVWDSSSVVFGGGTQLTVL
notes: as for B2
Consider B7, for which, in experiment [1], the Ka stood at 1.14e+07 M⁻¹, the koff is 0.0324 s⁻¹ and the association rate constant (kon) is 369000 M⁻¹ s⁻¹.

B8: anti-CD137 antibody MSB7 (antibody, V domains shown)
VH: QMQLVQSGAEVKKPGASVKVSCKASGYSFSGYYMHWVRQAPGQGLEWMGWVNPMSGGTNYAQKFQGRVTITRDTSASTAYMELSSLRSEDTAVYYCAREGMAMRLELDKWGQGTLVTVSS
VL: SYELTQPPSVSVAPGKTARITCGGNNIGSKSVHWYQQKPGQAPVLVIYYDSDRPSGIPERFSGSNSGNTATLTISRVEAGDEADYYCQVWDSSSVVFGGGTQLTVL
notes: as for B2
On to B8, for which, in experiment [1], the Ka is 6.03e+07 M⁻¹, the koff amounted to 0.00756 s⁻¹ and the kon was determined as 456000 M⁻¹ s⁻¹.

B9: anti-CD137 antibody MB3 (antibody, V domains shown)
VH: QMQLVQSGAEVKKPGASVKVSCKASGYQMRGYYMHWVRQAPGQGLEWMGWINPNSGGTNYAQKFQGRVTITRDTSASTAYMELSSLRSEDTAVYYCAREGEAVGLDLDYWGQGTLVTVSS
VL: SYELTQPPSVSVAPGKTARITCGGNNIGSKSVHWYQQKPGQAPVLVIYYDSDRPSGIPERFSGSNSGNTATLTISRVEAGDEADYYCQVWDSSSVVFGGGTQLTVL
notes: as for B2
Consider B9, for which, in experiment [1], the koff was 0.0678 s⁻¹ and the kon worked out at 296000 M⁻¹ s⁻¹. In addition, the binding result in experiment [2] is given as “no binding”.
